Data: patent publication US11707511B2, “Vaccine compositions and methods of using the same” (The Board of Supervisors of Louisiana State University and …, priority 2017, dated 2023)
“Also recorded” adds a separate entry of the source.

Key:
[1] = tested on: medically important Candida spp; experiment: DC-based immunization with universal peptides, coverage of medically important Candida spp; type: in vivo; settings: in words
From the text: Novel universal peptides as described herein can be excellent peptide vaccines against C. ablicans infection.

[2] = tested on: C. albicans; experiment: Active immunization with peptide-pulsed dendritic cells, disseminated candidiasis caused by C. albicans in mice; type: in vivo, Candida albicans
Method: (§1) Active Immunizations with peptide pulsed dendritic cells. […] It allows us to perform rapid throughput evaluation of candidate short peptides. When protective double universal peptide conjugate(s) become identified by this study, immunization approaches suitable for human use will be applied in further studies. All active vaccinations were conducted as previously described (6,7,9). DCs were pulsed in vitro with universal peptide as described before with minor modification by totally removing CFA for last booster (6). Briefly, DCs in culture were pulsed with the peptide antigen (1 μM) on day 6. On day 7, PGE2 (10^-7M) was added along with LPS (2 μg/ml, Sigma) for 24 h to induce DC maturation. On day 9, antigen-pulsed DCs were washed extensively and […] in 200 μl DPBS were given by intraperitoneal (i.p.) route as the priming dose to mice. The mice were boosted i.p. at day 14 and day 28 with fresh antigen-pulsed DCs without adjuvant.
Table 2 lists universal peptide vaccines that induced protection against disseminated candidiasis caused by C. albicans in mice. The universal peptide vaccines listed in Table 1 are expressed at high homology by all analyzed medically important Candida species in addition to C. albicans (see details at Table 2). By dendritic cell (DC) based immunization approach as described herein, each of the universal peptide vaccines was able to protect mice against disseminated candidiasis caused by C. albicans, with the survival rate 80-100% up to 80-120 days post challenge.
(§2) To perform rapid throughput evaluation of peptide vaccine candidates, immunizations were done by use of the similar antigen-pulsed DC based vaccine strategy with modification by totally removing CFA from vaccine formula. Fba peptide was used as positive control.

[3] = Induction of specific anti-peptide antibody responses in immunized mice; type: in vivo; settings: BALB/c mice; peptide-pulsed DC; data not shown
From the text: as §2
The double chimeric peptide conjugate vaccines have been tested for their abilities to induce specific anti-peptide antibodies and protective immunity against the disease caused by C. albicans. […] The enhancement in vaccine efficacy was evidenced by both increased survival and reduced or non-detectable fungal burden (colony forming units, CFUs) in kidneys of animals.

[4] = tested on: C. tropicalis (ATCC 20336); experiment: Peptide-vaccinated mice challenged with lethal dose of C. tropicalis; type: in vivo
Method: as §1
Peptide-vaccinated mice were challenged with lethal dose of live C. tropicalis cells (ATCC 20336; i.v. challenge dose: 1×10^6/mouse).

[5] = tested on: C. albicans 3153A; experiment: Passive transfer of mAbs or mAb cocktails i.p. before lethal i.v. challenge, mouse model of human disseminated candidiasis; type: in vivo, Candida albicans; settings: Table 14; for Protection of adsorbed mAb: mAb removed by absorption with Candida cells before transfer; for Protection / Protection (grade word): single mAb, C. albicans
Method: Passive transfer of MAbs by intraperitoneal (i.p.) route. The preventive effect of peptide-specific mAbs listed in Table 3 and Table 4 in naïve mice was examined by passive transfer experiments. […] For testing, mice received 0.5 ml of each mAb or 1 ml of two mAbs in combination (0.5 ml of each) intraperitoneally. […] The negative control materials tested in mice were single mAb or DPBS. Control mice received 0.5 ml of the DPBS diluents or single mAb treatment. For each condition, 6- to 8-week-old female BALB/c mice (NCI) were given 0.5 ml of test mAb, or 1 ml two mAb cocktails or control materials intraperitoneally, followed 4 h later by 0.1 ml intravenously of defined lethal dose of yeast cells per milliliter of DPBS. Mice were divided into groups with five mice each and three independent experiments were carried out. In some experiments, mice were given the same dose of mAbs or control materials on every other day post-challenge for two weeks, as compared to the protective efficacy of mAb in combinations. All mice were sacrificed on day 50. For animal groups that were challenged non-albicans candida species, determined optimal challenge doses were applied for each candida strain.
The hybridoma clones that produce the universal peptide specific mAbs listed above were generated from mice vaccinated with peptide-pulsed dendritic cell (DC) preparation as described previously (6). The isotype of mAb was determined with a Mouse Monoclonal Antibody Isotyping Kit (Pierce, USA). […] In detail, BALB/c mice were given an i.p dose of each mAb four hours before hematogenous challenged with a lethal dose of C. albicans3153A cells. […] Importantly, passive protection was prevented by removal of the mAbs by absorption with Candida cells before transfer, which provided strong additional evidence for the protection being due to the mAb.
The three cell wall proteins were selected because of expression during human candidiasis and cell wall association, and included fructose-bisphosphate aldolase (Fba); methyltetrahydropteroyltriglutamate-homocysteine methyltransferase (Met6); hyphal wall protein-1 (Hwp1). The hybridoma clones listed at Table 5, which produce the peptide specific mAbs, were generated from mice vaccinated with peptide-pulsed dendritic cell (DC) preparation as described previously (6). The isotype of mAb was determined with a Mouse Monoclonal Antibody Isotyping Kit (Pierce, USA). […] Importantly, passive protection was prevented by removal of the mAbs by absorption with Candida cells before transfer, which provided strong additional evidence for the protection being due to the mAb).
The preventive effect of each universal peptide-specific mAb was examined by passive transfer experiments. […] For testing, 5 mice of each tested group received 0.5 ml of each mAb intraperitoneally. The negative control materials tested in mice were mAbs absorbed with C. albicans yeast cells (3153A) and DPBS. Control mice received 0.5 ml of the DPBS diluents or adsorbed mAb solution. For each condition, 6- to 8-week-old female BALB/c mice (NCI) were given 0.5 ml of test mAb, or control materials intraperitoneally, followed 4 h later by 0.1 ml intravenously of a suspension containing lethal dose of Candida cells per milliliter of DPBS. Mice were divided into groups with five mice each and three independent experiments were carried out. We have developed neutropenic murine models of disseminated infection by C. glabrata, C. tropicalis and C. parapsilosis. To induce neutropenia, naïve mice received a 200 mg/kg dose of cyclophosphamide (CY) by i.p. on day −3. Prolonged neutropenia were maintained for 30-50 days by giving each animal a 150 mg/kg dose of CY by i.p. every 10 days after infection.

[6] = tested on: C. auris AR-0386; experiment: Passive transfer of mAbs or two mAbs in combination in A/J mouse model of invasive C. auris infection; type: in vivo, Candida auris
Method: A. Complement protein C5-defecient A/J mice were treated with one of the five mAb or with DPBS as a vehicle control. The following day, mice were challenged with 1×10^8 C. auris cells/100 ul DPBS dose per mouse. […] B. Fungal burdens in the kidneys (top), heard (center), and brain (bottom).
Identified protective mAbs were obtained by use of standard hybridoma technique and purified by use of protein A/G. A/J mice were given an i.p. dose of either single mAb or two mAbs in combination 24 hours before hematogensous challenge with a lethal dose (2×108) of C. auris AR-0386 live cells. Mice received either 9G2F5 alone or 6H1G8 alone or 9F2G5 and 3H7E3 in combination had 40% survival rate respectively, with prolonged survival as compared to control animals that received DPBS buffer control.
Evaluation and validation of a panel of peptide-specific monoclonal antibodies (mAbs) as a passive immunization strategy protect against invasive C. auris infection in established A/J mouse model of human disease.
The monoclonal antibodies used in this experiment were: • 6H1G8 (IgG2b), α-Hwp1 (Hyphal wall protein) • 3E2G2 (IgG2b), α-Fba (Fructose bisphosphate aldolase) • 10E7E2 (IgG1), α-GPV-P3 (General peptide vaccine 3 from Phosphoglycerate kinase) • 9F2G5 (IgG2a), α-Pgk1 (Phosphoglycerate kinase) • 3H7E3 (IgG1), α-Met6 (Methyltetrahydropteroyltriglutamate)

AILGGSKVSDKI (CAILGGSKVSDKI) [GPV-P1]
coverage against medically important Candida spp [1]: able to provide broad coverage

FAIPAINVTSSSTVVAALE [Fba3]
protection against disseminated candidiasis caused by C. albicans ([2]; FIG. 2, antigen-pulsed DC vaccine without CFA): good protective responses | CFUs in kidneys as compared to controls ([2]; FIG. 2 B and D): reduced or non-detectable CFUs | specific antibody responses [3]: able to induce specific antibody responses | survival ([4]; FIG. 3A, i.v. challenge 1×10^6/mouse, up to 80 days): 80% | live fungal cells (CFU) in kidneys as compared to controls ([4]; FIG. 3B, p<0.001): significantly reduced live fungal cells

FWVNPDCGLKTR (CFWVNPDCGLKTR; (1)..(1) May or may not be present) [GPV-M1]
coverage against medically important Candida spp [1]: able to provide broad coverage

IVIIGGGDTATVAKK (CIVIIGGGDTATVAKK; (1)..(1) May or may not be present) [GPV-P3]
coverage against medically important Candida spp [1]: able to provide broad coverage

PAINVTSSSTVVAALEAA [FbaU2]
specific antibody responses [3]: able to induce specific antibody responses

SSSTVVAAL [Fba4]
specific antibody responses [3]: able to induce specific antibody responses

TTTIGSFPQTKDIR (CTTTIGSFPQTKDIR; (1)..(1) May or may not be present) [GPV-M2]
coverage against medically important Candida spp [1]: able to provide broad coverage

B1: 2B10C1: IgG1 mAb of hybridoma 2B10C1, specific for Met6 peptide; VH SEQ ID NO: 60, VL SEQ ID NO: 62 (antibody, V domains shown)
VH: MGWSYIILFLLATATRVHSQVQLQQPGAEVVRPGASVKVSCKASGYTVSSYWMSWVKQRPEQGLEWIGRIDPYDSETHYNQKFKDKAILTVDKSSSTAYMQLSSLTSEDSAVYYCARTAASFDYWGQGTTLTVSS
VL: MKLPVRLLVLMFWIPASSSDVVMTQTPLSLPVSLGDQASISCRSSQSLVHSNGNSYLHWYLQKPGQSPKLLIYKVSNRFSGVPDRFSGSGSGTDFTLNISRVEAEDLGVYFCSQSTHVPFTFGSGTKLEIK
Protection of adsorbed mAb [5]: None | Protection [5]: (80-100%) | Protection (grade word) [5]: High | Protection against C. auris ([6]; Table 19, A/J strain mice): 60-90% | Protection against C. auris (grade word) ([6]; Table 19, A/J strain mice): High

B2: 6H1G8: IgG2b mAb of hybridoma 6H1G8, specific for Hwp1 peptide (antibody)
heavy: EVQLQQSGPELVKPGASVKISCKASGYSITGYYMHWVKQSHVKSLEWIGRINPYTGATSYTQNFKDKASLTVDKSSSTAYMELLSLKSEDSAVYYCAKGGGRSSYWYFDVWGAGTAVTVSSAKTTPPSVYPLAPGCGDTTGSSVTLGCLVKGYFPESVTVTWNSGSLSSSVHTFPALLQSGLYTMSSSVTVPSSTWPSQTVTCSVAHPASSTTVDKKLEPSGPISTINPCPPCKECHKCPAPNLEGGPSVFIFPPNIKDVLMISLTPKVTCVVVDVSEDDPDVQISWFVNNVEVHTAQTQTHREDYNSTIRVVSTLPIQHQDWMSGKEFKCKVNNKDLPSPIERTISKIKGLVRAPQVYILPPPAEQLSRKDVSLTCLVVGFNPGDISVEWTSNGHTEENYKDTAPVLDSDGSYFIYSKLNMKTSKWEKTDSFSCNVRHEGLKNYYLKKTISRSPGK
light: DIQMTQTTSSLSASLGDRVTISCSASQAISNYLNWYQQKPDGTIKLLIYYTSSLHSGVPSRFSGSGSGTDYSLTISNLEPEDIATYYCQQYSKLPWTFGGGTKLEIKRADAAPTVSIFPPSSEQLTSGGASVVCFLNNFYPKDINVKWKIDGSERQNGVLNSWTDQDSKDSTYSMSSTLTLTKDEYERHNSYTCEATHKTSTSPIVKSFNRNEC
Protection of adsorbed mAb [5]: None | Protection [5]: (70-80%) | Protection (grade word) [5]: High | fungal burdens in targeted organs ([6]; A/J mouse model, in words): lowest fungal burdens in all organs; also recorded: able to almost clear fungal burden | protection against C. auris invasive infection ([6]; A/J mouse model, in words): protect against C. auris invasive infection; also recorded: best protection | survival ([6]; FIG. 15A, A/J mice, 1×10^8 C. auris cells, experiment terminated 40 days post challenge): 50% | fungal burden in the kidneys ([6]; FIG. 15B, one treated mouse): Non-detectible levels of fungal burden | fungal burden in the heart and brain ([6]; FIG. 15B, several mice): non-detectible levels of fungal burden | survival rate ([6]; FIG. 16, A/J mice, mAb(s) i.p. 24 hours before lethal dose (2×108) of C. auris AR-0386): 40%
